A short description of data set [1]: blood clearance of ^131I-labelled modified SA and Avid in rabbits. To be noted: rabbit, ^131I label, over 2 hours.
Experimental: (§1) The blood clearance kinetics of the compounds of the present invention can be assessed by in vivo assays. The modified Avid and SA compounds are detectably labeled, for example by radiolabeling, injected into animals, and blood clearance is then determined by biodistribution analysis of radiolabeled samples. For example, the compounds of the present invention can be radiolabeled with ^131I by the Pierce lodobead method (Pierce, Rodeford, Ill.) and separated from free iodine for example by ultrafiltration using CENTRICON-30 filters. Experimental animals, for example, rabbits weighing about 3 kilograms, are fasted, anesthetized, and an external jugular vein is dissected and catheterized for injection and collection of blood samples. A radiolabeled compound of the present invention is injected. Whole blood samples are taken at various time intervals for about two hours. By comparing the blood clearance of galactose-modified SA with native SA, and Avid-E, the skilled artisan can determine the extent of modification that results in optimal blood clearance.
(§2) SA and Avid, 0.5 mg, were radiolabeled with starting activities of ˜0.3 mCi ^131I and ˜0.1 mCi ^131I, respectively.
(§3) Biodistribution was determined in vivo. New Zealand White rabbits, ˜3 kg, (n=3 per experiment) were fasted for 12 hours prior to the experiment and anesthetized using an intramuscular injection of chlorpromazine (25 mg/kg) followed by intravenous sodium pentobarbital (15 mg/kg). An external jugular vein was dissected and catheterized using a 5 French straight catheter for injection and collection of whole blood. The animal was placed in a supine position under the gamma camera for imaging and was then injected with [75 μg] of the radiolabeled proteins prepared above. Whole blood samples (2-3 ml) were taken at intervals for 2 hours. Planar gamma camera images (30K count acquisition) were taken at 5, 30, 60 and 120 minutes. At two hours, animals were euthanized. Major organs were removed, weighed and representative samples taken for biodistribution analysis. Blood volume was estimated to be 6% of total body weight.
The nature of data set [2]: biodistribution and gamma camera imaging of ^131I-labelled modified SA and Avid in rabbits. To be noted: rabbit; for kidney accumulation (biodistribution) / liver accumulation (biodistribution): 2 hours after injection; for planar gamma camera images, location of activity: images at 5, 30 and 120 minutes.
Experimental: as §2, §3
Data set [3] is described as follows: DACB (biotin chelate) saturation / biotin binding assay. As for the experimental part: The ability of the compounds of the present invention to bind to biotin can be assessed by in vitro assays known to one of ordinary skill in the art. For example, the compounds of the present invention are incubated with a molar excess of radiolabeled biotin under conditions sufficient for avidin-biotin or streptavidin-biotin binding. Biotin bound to the tested compound is separated from unbound biotin, for example by filtration. The bound biotin/modified Avid or SA ratio is determined by dividing the activity in the retentate by the specific activity of the radiolabeled biotin. The binding ratios for each modified Avid or SA compound are determined by dividing the bound moles of biotin by the moles of each compound.
In a preferred embodiment, the radiolabeled biotin is the biotin chelate deferoxamineacetylcysteinylbiotin (DACB) labeled with ^67Ga. DACB is known in the art and described for example by Rosebrough et al (1993) J. Pharm. Exp. Therap. 265:408 and in U.S. Pat. No. 5,326,778. DACB can be radiolabeled by direct addition of carrier free ^67Ga citrate (DuPont Merck Pharmaceutical Co., Billerica, Mass.). Samples of Avid, SA, modified Avid, and modified SA are incubated with a 20/1 molar excess of ^67Ga-DACB on CENTRICON-30 filters (Amicon, Beverly, Mass.) in 0.05M Tris/0.15M NaCl, pH 7.5. After two washings, the bound DACB/protein ratio is determined by dividing the bound activity in the retentate by the specific activity of ^67Ga-DACB. The binding ratio for each compound is determined by dividing the bound moles of DACB by the moles of streptavidin. […]
The purified DACB was then used to access the ability of the compounds prepared in accordance with Examples I-III to bind to biotin. […] After 2 washings, the bound DACB/protein ratio was determined by dividing the bound activity in the retentate by the specific activity of ^67Ga DACB (˜2×10^16 cpm/mole). The binding ratios for each sample were determined by dividing the bound moles of DACB by the moles of each protein. […]

On the set-up of data set [4]: species or system rabbits. Conditions: rabbit, in vivo, 0.12 mg. As for the experimental part:
0.3 mg of SA-Tgal or SA-pTgal were-added to a microcentrifuge tube containing ˜0.5 mCi of I-131. Three Iodobeads were added and then mixed and incubated for 12 minutes at room temperature. Free I-131 was removed by ultrafiltration using centricon-30 filters. SA-Tgal and SA-pTgal concentration was determined spectrophotometrically. (E^1%280 nm=34)
0.12 mg of I-131 SA-Tgal and I-131 SA-pTgal were injected into rabbits for two hours. […] The liver accumulation for SA-Tgal was 90% compared to 16% for SA-pTgal.

For data set [5] the following is noted: rabbit, in vivo.
Experimental: as §1, §2, §3
For data set [6] the following is noted: rabbit, in vivo. The source holds these as a separate data set.
Experimental: as §2, §3

Read-outs that look alike come from different tables or passages of the source.

This note sets out measurements from patent US6429297B1, “Modified avidin and streptavidin and methods of use thereof” (University of Rochester, priority 1995, dated 2002).

As for “Avid-E/N: avidin both neutralized and deglycosylated”, the “blood clearance (in words)” value in data set [1] was “substantially prolonged”. In addition, in data set [2], the “kidney accumulation (biodistribution)” value was “low levels in both the kidney and liver”; the “liver accumulation (biodistribution)” value is “low levels in both the kidney and liver”; the “planar gamma camera images, location of activity” value (“planar gamma camera images” below) was “circulatory activity with a corresponding decrease in liver and kidney activity”.
On to “Avid-N: avidin neutralized by acetylation of its lysine amino acids”, for which the DACB saturation analysis entry in data set [3] (sample made at NHS-Ac/Avid molar ratio 10) is reported as “approximated the binding of DACB to native avidin”. Further, in data set [3] (sample made at NHS-Ac/Avid molar ratio 25), the DACB saturation analysis result is on record as “approximated the binding of DACB to native avidin”. For the same substance, the “blood clearance (in words)” value in data set [1] is recorded as “cleared slower than native Avid”. Also, in data set [2], the “kidney accumulation (biodistribution)” value is reported as “decreased considerably”; the “liver accumulation (biodistribution)” value is on record as “high liver accumulation”; the “planar gamma camera images” value was “dramatic reduction in kidney activity and a corresponding increase in liver activity”.
Regarding “SA-pTgal: acetylated Tgal modified streptavidin”, the “blood clearance (in words)” value in data set [4] is “much slower than that of the SA-Tgal”.
Regarding avidin [reference compound], the “blood clearance (in words)” value in data set [1] is “cleared quickly”. In data set [2], the “kidney accumulation (biodistribution)” value is “accumulated mostly in the liver and kidney”; the “liver accumulation (biodistribution)” value is “accumulated mostly in the liver and kidney”; the “planar gamma camera images” value was “exclusively in the liver and kidneys”.
streptavidin [SA]: the “DACB binding ratio (bound moles DACB per mole protein)” value in data set [3] (20/1 molar excess ^67Ga DACB, pH 7.5) is on record as 3.6. The “percent of injected dose circulating in the blood at 2 hours” value in data set [5] is listed as “greater than 50%”. For the same substance, the “planar gamma camera images” value in data set [6] was “vascular activity as indicated by systemic circulation and cardiac activity”.
